“And” between values parts separate entries of the source, which are not always exact repeats. Identical values can stand only once. Bounds are passed on as bounds.

For test [1], the target named is Liraglutide. The test can be described thus: AF4-MALS (asymmetrical flow field-flow fractionation with UV, fluorescence, dRI and MALS detection); Liraglutide 6 mg/mL (API resuspended in water or formulation, FDF, Victoza, Saxenda), 30 uL injected; formulation buffer (disodium phosphate dihydrate, propylene glycol, phenol, water) as mobile phase; PES membrane 1 kDa cutoff; molar mass by MALS with dRI; n = 3.

The target in test [2] is Liraglutide. The test can be described thus: AF4-MALS (asymmetrical flow field-flow fractionation with UV, fluorescence, dRI and MALS detection); thermally stressed, aggregated API (APIaggr), 3 mg/mL in formulation, 60 uL injected; formulation buffer as mobile phase.
Test [3] deals with Liraglutide. The description is as above. This is another data set of the same source.
Test [4] has as its target Liraglutide. The test can be described thus: SEC-MALS; HPLC-UV-dRI-MALS, Shodex Protein KW-802.5; mobile phase 1 g/L L-Arginine: Acetonitrile: acetic acid, 35:50:15 (results say 30% acetonitrile), isocratic 0.5 mL/min; Liraglutide FDF Lot #33387-18 and Saxenda Lot #JP54138, 6 mg/mL.

A word on the stoichiometry N: it is the number of molecules, sites or subunits per partner or assembly. Turning to Liraglutide (peptide), the stoichiometry N is 5.2 units with Liraglutide [1]; 20 units in the test with Liraglutide [2]; above 20 units with Liraglutide [3]; 2 and 4 in the test with Liraglutide [4]. Also, in the test with Liraglutide [4], the relative abundance of monomer was above 99.5%.

The values are drawn from PMC9457993.
